From patent US20260242478A1 (published 2026)
Where no end group is shown, it is not given here.

Experiments:
006 PSMA Fab [1] = target: T1, 006 PSMA Fab (biotinylated (site not stated)); test: clonal phage ELISA on captured PSMA Fab, wells pre-incubated with PSMA antigen as competitor
T1 construct: Biotinylated PSMA Fab captured on neutravidin coated plates in the panning ELISA; also called Anti-PSMA Fab

006 PSMA Fab [2] = target: T1, 006 PSMA Fab; test: clonal phage ELISA on biotinylated PSMA Fab captured on neutravidin plates, anti-M13-HRP detection;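 also: crude clonal phage supernatants added to wells preincubated with PSMA antigen or with blocking buffer only (no wash between), briefly incubated, then washed before detecting bound phage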
Procedure: (§1) Clonal phage were harvested as crude supernatants and screened via standard ELISAs. […] Prior to the addition of clonal phage. wells were incubated with blocking buffer and PSMA antigen or blocking buffer alone. Without washing or aspirating, clonal phage supernatants were then added to the wells and incubated for a short time. Wells were then washed followed by detection of bound phage using a horse radish conjugated anti-M13 antibody.

006 PSMA Fab [3] = target: T2, 006 PSMA Fab; test: clonal phage ELISA on captured PSMA Fab pre-incubated with PSMA antigen as competitor, anti-M13 HRP detection;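 also: crude clonal phage supernatants tested by ELISA, wells first treated with blocking buffer plus PSMA antigen, bound phage read out via HRP-linked anti-M13 antibody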
T2 construct: also called Anti-PSMA Fab
Procedure: as §1

006 PSMA Fab [4] = target: T2, 006 PSMA Fab; test: clonal phage ELISA on biotinylated PSMA Fab captured on neutravidin plates, anti-M13 HRP detection;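 also: crude clonal phage supernatants tested, before phage were added, wells were pretreated with PSMA antigen in blocking buffer or with blocking buffer only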
Procedure: as §1

PSMA Fab [5] = target: T3, PSMA Fab; test: phage ELISA; biotinylated PSMA Fab on neutravidin plate, blocking buffer alone, anti-M13 HRP detection
T3 construct: also called Anti-PSMA Fab; 006 PSMA Fab
Procedure: as §1

PSMA Fab [6] = target: T3, PSMA Fab; test: phage ELISA; biotinylated PSMA Fab on neutravidin plate, pre-incubated with PSMA antigen as competitor, anti-M13 HRP detection
Procedure: as §1

Binder	phage binding ELISA signal in presence of PSMA antigen (006 PSMA Fab [1])	phage binding ELISA signal (006 PSMA Fab [2])	Phage binding ELISA signal, Anti-PSMA Fab with PSMA antigen (006 PSMA Fab [3])	Phage binding ELISA signal, Anti-PSMA Fab (006 PSMA Fab [4])	other results
SYKWCTPDWMCVAV (Clone of the Peptide-180 optimisation library, tested as clonal phage supernatant (peptide fused to pIII of the bacteriophage)) [Phage-2769]	0.0709	0.651			
VAKLCTPAWMCSAM (cysteine pairing not given here; also: fused to pIII of bacteriophage, linker and pIII sequence not given here, Clonal phage of the Peptide-180 optimization library, tested as crude phage supernatant; not shown: fused to pIII of the bacteriophage) [Phage-2835]			0.0638	0.431	
PEVMCRPVWMCLGF (cysteine pairing not given here; also: fused to phage pIII, linker not given here, Clonal phage of the Peptide-180 optimization library, tested as crude phage supernatant; not shown: fused to pIII of the bacteriophage) [Phage-2842]			0.112	2.51	
HPKLCTPEWMCVIQ (cysteine pairing not given here; also: fused to pIII of bacteriophage, linker and pIII sequence not given here, Clonal phage of the Peptide-180 optimization library, tested as crude phage supernatant; not shown: fused to pIII of the bacteriophage) [Phage-2838]			0.104	0.424	
HAIWCIPEWMCAFN (cysteine pairing not given here; also: fused to pIII, displayed on bacteriophage, Clone of the Peptide-180 optimisation library, tested as clonal phage supernatant (peptide fused to pIII of the bacteriophage)) [Phage-2765]	0.124	0.658			
DVTWCIPPWMCMYN (Clone of the Peptide-180 optimisation library, tested as clonal phage supernatant (peptide fused to pIII of the bacteriophage)) [Phage-2767]	0.0814	0.655			
VEKWCTPAWMCSTS (Clone of the Peptide-180 optimisation library, tested as clonal phage supernatant (peptide fused to pIII of the bacteriophage)) [Phage-2766]	0.065	0.657			
PWKWCTPVWMCQGV (Clone of the Peptide-180 optimisation library, tested as clonal phage supernatant (peptide fused to pIII of the bacteriophage)) [Phage-2761]	0.0937	0.669			
VFPICKPSWMCVGM (cysteine pairing not given here; also: fused to pIII of bacteriophage, linker and pIII sequence not given here, Clonal phage of the Peptide-180 optimization library, tested as crude phage supernatant; not shown: fused to pIII of the bacteriophage) [Phage-2849]			0.174	2.46	
WINWCTPQWMCADL (cysteine pairing not given here; also: fused to pIII, displayed on bacteriophage, Clone of the Peptide-180 optimisation library, tested as clonal phage supernatant (peptide fused to pIII of the bacteriophage)) [Phage-2762]	0.13	0.662			
MVHWCTPSWMCSAL (Clone of the Peptide-180 optimisation library, tested as clonal phage supernatant (peptide fused to pIII of the bacteriophage); Row read against Peptide-180: MVHWCTPSWMCSAL) [Phage-2758]	0.1	0.677			
WMPRCVPEWMCAGF (cysteine pairing not given here; also: fused to pIII of bacteriophage, linker and pIII sequence not given here, Clonal phage of the Peptide-180 optimization library, tested as crude phage supernatant; not shown: fused to pIII of the bacteriophage) [Phage-2847]			0.334	2.48	
EPQWCIPKWMCDHM (cysteine pairing not given here; also: fused to pIII of bacteriophage, linker and pIII sequence not given here, Clonal phage of the Peptide-180 optimization library, tested as crude phage supernatant; not shown: fused to pIII of the bacteriophage) [Phage-2840]			0.0608	0.423	
ESIRCTPAWMCVEM (cysteine pairing not given here; also: fused to pIII of bacteriophage, linker and pIII sequence not given here, Clonal phage of the Peptide-180 optimization library, tested as crude phage supernatant; not shown: fused to pIII of the bacteriophage) [Phage-2841]			0.0725	0.421	
WEVRCVPEWMCVGF (cysteine pairing not given here; also: fused to pIII of bacteriophage, linker and pIII sequence not given here, Clonal phage of the Peptide-180 optimization library, tested as crude phage supernatant; not shown: fused to pIII of the bacteriophage) [Phage-2846]			0.119	2.48	
MLPICKPDWMCAGF (cysteine pairing not given here; also: fused to pIII of bacteriophage, linker and pIII sequence not given here, Clonal phage of the Peptide-180 optimization library, tested as crude phage supernatant; not shown: fused to pIII of the bacteriophage) [Phage-2843]			0.0942	2.49	
FEKWCTPTWMCWPY (Clone of the Peptide-180 optimisation library, tested as clonal phage supernatant (peptide fused to pIII of the bacteriophage)) [Phage-2763]	0.0829	0.661			
ENHWCRPMWMCETI (Clone of the Peptide-180 optimisation library, tested as clonal phage supernatant (peptide fused to pIII of the bacteriophage)) [Phage-2764]	0.0683	0.66			
DWKLCKPTWMCESL (cysteine pairing not given here; also: fused to pIII of bacteriophage, linker and pIII sequence not given here, Clonal phage of the Peptide-180 optimization library, tested as crude phage supernatant; not shown: fused to pIII of the bacteriophage) [Phage-2836]			0.0664	0.43	
PVKMCTPAWMCSER (Clone of the Peptide-180 optimisation library, tested as clonal phage supernatant (peptide fused to pIII of the bacteriophage)) [Phage-2760]	0.0866	0.67			
EIPYCVPQWMCVAM [Phage-3434]					Phage binding ELISA signal, Anti-PSMA Fab (PSMA Fab [5]): 1.76; Phage binding ELISA signal, Anti-PSMA Fab in presence of PSMA (PSMA Fab [6]): 0.0788
DSHWCMPVWMCMGL (cysteine pairing not given here; also: fused to pIII of bacteriophage, linker and pIII sequence not given here, Clonal phage of the Peptide-180 optimization library, tested as crude phage supernatant; not shown: fused to pIII of the bacteriophage) [Phage-2839]			0.156	0.423	
VDRWCTPPWMCDWQ (cysteine pairing not given here; also: fused to pIII of bacteriophage, linker and pIII sequence not given here, Clonal phage of the Peptide-180 optimization library, tested as crude phage supernatant; not shown: fused to pIII of the bacteriophage) [Phage-2837]			0.0626	0.429	
VVAMCKPAWMCAGL (cysteine pairing not given here; also: fused to pIII of bacteriophage, linker and pIII sequence not given here, Clonal phage of the Peptide-180 optimization library, tested as crude phage supernatant; not shown: fused to pIII of the bacteriophage) [Phage-2844]			0.0731	2.48	
VLHMCVPLWMCHGL [Phage-3435]					Phage binding ELISA signal, Anti-PSMA Fab (PSMA Fab [5]): 1.76; Phage binding ELISA signal, Anti-PSMA Fab in presence of PSMA (PSMA Fab [6]): 0.133
MQKMCIPTWMCDGL (Clone of the Peptide-180 optimisation library, tested as clonal phage supernatant (peptide fused to pIII of the bacteriophage)) [Phage-2759]	0.0817	0.673			
VMTVCKPAWMCTGF (cysteine pairing not given here; also: fused to pIII of bacteriophage, linker and pIII sequence not given here, Clonal phage of the Peptide-180 optimization library, tested as crude phage supernatant; not shown: fused to pIII of the bacteriophage) [Phage-2848]			0.205	2.47	
AENWCTPRWMCEGI (Clone of the Peptide-180 optimisation library, tested as clonal phage supernatant (peptide fused to pIII of the bacteriophage)) [Phage-2768]	0.201	0.655			
WDMLCRPAWMCEGF (cysteine pairing not given here; also: fused to pIII of bacteriophage, linker and pIII sequence not given here, Clonal phage of the Peptide-180 optimization library, tested as crude phage supernatant; not shown: fused to pIII of the bacteriophage) [Phage-2845]			0.157	2.48	
QIKWCIPMWMCEGE (Clone of the Peptide-180 optimisation library, tested as clonal phage supernatant (peptide fused to pIII of the bacteriophage)) [Phage-2770]	0.0554	0.651			
